Values of other authors in paper PMC3440555 (Bioconjugate chemistry, 2012).

Legend:
[1] = target: melanocortin-1 (MC1) receptor (Mus musculus, UniProt Q01727); settings: read-out: MC1 receptor binding affinity (IC50 value); B16/F1 melanoma cells
[2] = test system: B16/F1 melanoma-bearing C57 mice
[3] = test system: B16/F1 melanoma-bearing mouse; settings: flank primary B16/F1 melanoma and B16/F10 pulmonary melanoma metastases; 2 h post-injection

Chain of melanocortin-1 (MC1) receptor (Q01727 whole entry): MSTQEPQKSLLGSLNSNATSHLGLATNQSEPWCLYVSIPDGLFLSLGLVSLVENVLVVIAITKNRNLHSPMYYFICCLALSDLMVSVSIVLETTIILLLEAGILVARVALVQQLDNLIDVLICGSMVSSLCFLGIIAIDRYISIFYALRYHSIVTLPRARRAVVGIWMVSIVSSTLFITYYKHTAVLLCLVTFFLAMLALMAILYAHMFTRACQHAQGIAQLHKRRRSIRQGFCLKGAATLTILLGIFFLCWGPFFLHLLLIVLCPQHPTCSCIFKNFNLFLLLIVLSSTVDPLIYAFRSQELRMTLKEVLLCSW

For “DOTA-GGNle-CycMSHhex: non-radiolabeled DOTA-conjugated lactam bridge-cyclized alpha-MSH peptide, DOTA-Gly-Gly-Nle-c[Asp-His-DPhe-Arg-Trp-Lys]-CONH2”, the IC50 [1] is listed as 2.1 nM.
For “^67Ga-DOTA-Gly-Glu-c[Lys-Nle-Glu-His-DPhe-Arg-Trp-Gly-Arg-Pro-Val-Asp] [^67Ga-DOTA-GlyGlu-CycMSH]”, the “Decrease of renal uptake by L-lysine co-injection” value ([2]; 2 h post-injection, melanoma uptake not affected) is given as 69.8%, the Renal uptake ([2]; mouse, in vivo, 2 h) is given as 27.55 ± 7.87 %ID/g and the Tumor uptake ([2]; mouse, in vivo, 2 h) is given as 12.93 ± 1.63 %ID/g. The “Visualization of melanoma by SPECT/CT” value [3] was “clearly visualized”.
